Source: article PMC2849990 (Structure (London, England : 1993), 2008)

T1: human pyruvate dehydrogenase (E1p) component, heterotetramer alpha2beta2 (Homo sapiens, UniProt P08559+P11177)
T1 sequence (P08559 30-390): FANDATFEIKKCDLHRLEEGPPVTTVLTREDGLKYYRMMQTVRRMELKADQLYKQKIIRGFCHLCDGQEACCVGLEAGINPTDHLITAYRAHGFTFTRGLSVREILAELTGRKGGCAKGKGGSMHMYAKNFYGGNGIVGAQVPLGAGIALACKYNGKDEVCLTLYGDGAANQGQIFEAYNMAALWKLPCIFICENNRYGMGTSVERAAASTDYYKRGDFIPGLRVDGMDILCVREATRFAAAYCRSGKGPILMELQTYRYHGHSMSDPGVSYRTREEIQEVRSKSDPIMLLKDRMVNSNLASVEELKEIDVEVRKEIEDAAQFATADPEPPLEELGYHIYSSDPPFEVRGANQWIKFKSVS
T1 sequence (P11177 31-359): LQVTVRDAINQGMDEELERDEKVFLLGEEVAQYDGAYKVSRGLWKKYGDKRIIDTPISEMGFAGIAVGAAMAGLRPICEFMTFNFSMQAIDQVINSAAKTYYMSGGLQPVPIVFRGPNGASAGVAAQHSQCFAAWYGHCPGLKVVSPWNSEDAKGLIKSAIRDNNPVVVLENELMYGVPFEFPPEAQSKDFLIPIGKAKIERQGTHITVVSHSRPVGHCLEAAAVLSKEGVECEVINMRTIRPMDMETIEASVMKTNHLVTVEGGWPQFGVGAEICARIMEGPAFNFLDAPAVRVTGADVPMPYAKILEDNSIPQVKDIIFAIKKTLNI

T2: human pyruvate dehydrogenase (E1p) component, heterotetramer alpha2beta2 (Homo sapiens, UniProt P08559+P11177, P08559:Y118F)
T2 sequence (P08559 30-390 Y118F): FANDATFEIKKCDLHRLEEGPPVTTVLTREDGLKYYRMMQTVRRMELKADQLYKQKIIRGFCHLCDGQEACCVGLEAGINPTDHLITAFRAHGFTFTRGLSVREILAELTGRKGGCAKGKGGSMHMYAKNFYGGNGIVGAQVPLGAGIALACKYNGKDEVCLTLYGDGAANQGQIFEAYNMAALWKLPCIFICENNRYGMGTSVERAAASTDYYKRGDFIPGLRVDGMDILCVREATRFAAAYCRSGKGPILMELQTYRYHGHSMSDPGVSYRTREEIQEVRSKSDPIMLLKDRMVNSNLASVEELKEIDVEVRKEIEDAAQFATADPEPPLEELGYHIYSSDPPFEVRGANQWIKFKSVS
T2 sequence (P11177 31-359): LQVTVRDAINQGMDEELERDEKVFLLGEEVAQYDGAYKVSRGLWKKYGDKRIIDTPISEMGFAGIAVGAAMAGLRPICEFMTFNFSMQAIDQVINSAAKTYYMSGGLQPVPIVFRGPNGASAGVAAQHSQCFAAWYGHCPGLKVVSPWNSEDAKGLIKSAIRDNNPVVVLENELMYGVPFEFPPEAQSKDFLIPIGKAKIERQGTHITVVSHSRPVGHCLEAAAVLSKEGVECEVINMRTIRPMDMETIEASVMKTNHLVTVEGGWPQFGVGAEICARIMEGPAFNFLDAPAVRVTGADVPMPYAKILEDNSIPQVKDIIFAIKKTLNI

T3: E1p-α subunit of wild-type human E1p (human, UniProt P08559 30-390)
T3 sequence: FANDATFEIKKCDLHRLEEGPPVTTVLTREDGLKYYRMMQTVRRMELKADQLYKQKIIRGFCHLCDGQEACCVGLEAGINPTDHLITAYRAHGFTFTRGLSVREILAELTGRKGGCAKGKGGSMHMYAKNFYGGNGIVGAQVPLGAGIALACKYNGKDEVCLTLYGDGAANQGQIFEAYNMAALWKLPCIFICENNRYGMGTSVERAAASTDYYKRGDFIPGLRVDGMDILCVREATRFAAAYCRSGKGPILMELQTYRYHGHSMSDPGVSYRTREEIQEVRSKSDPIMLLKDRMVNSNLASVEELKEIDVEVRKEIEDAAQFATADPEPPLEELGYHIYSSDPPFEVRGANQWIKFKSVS

T4: E1p-α subunit of S1-E1p (S271A-α, S203A-α) (human, UniProt P08559 30-390, S271A-α | S203A-α)
T4 sequence: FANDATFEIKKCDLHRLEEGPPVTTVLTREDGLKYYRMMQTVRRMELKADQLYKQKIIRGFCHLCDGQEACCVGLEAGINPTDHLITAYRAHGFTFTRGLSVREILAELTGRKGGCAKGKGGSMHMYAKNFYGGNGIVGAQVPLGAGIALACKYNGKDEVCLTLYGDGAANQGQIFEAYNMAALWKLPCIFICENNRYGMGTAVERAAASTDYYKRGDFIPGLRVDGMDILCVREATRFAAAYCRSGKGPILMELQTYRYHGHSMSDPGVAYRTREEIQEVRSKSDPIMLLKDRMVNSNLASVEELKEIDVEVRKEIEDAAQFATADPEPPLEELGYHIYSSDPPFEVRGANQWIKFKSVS

T5: E1p-α subunit of Y89F-α mutant E1p (human, UniProt P08559 30-390, Y89F-α)
T5 sequence: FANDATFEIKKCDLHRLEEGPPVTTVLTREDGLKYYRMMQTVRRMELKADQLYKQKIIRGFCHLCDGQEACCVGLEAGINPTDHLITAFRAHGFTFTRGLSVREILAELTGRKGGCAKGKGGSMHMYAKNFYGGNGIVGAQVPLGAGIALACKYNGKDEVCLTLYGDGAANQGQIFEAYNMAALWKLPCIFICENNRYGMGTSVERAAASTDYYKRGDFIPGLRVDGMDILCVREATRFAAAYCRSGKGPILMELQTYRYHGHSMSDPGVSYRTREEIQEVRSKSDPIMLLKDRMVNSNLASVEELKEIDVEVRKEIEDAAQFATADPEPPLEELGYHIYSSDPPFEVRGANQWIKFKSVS


Columns and labels:
[1] = molecular target: T1, human pyruvate dehydrogenase (E1p) component, heterotetramer alpha2beta2; assay: tryptophan fluorescence quenching; format: binding
[2] = molecular target: T2, human pyruvate dehydrogenase (E1p) component, heterotetramer alpha2beta2; assay: tryptophan fluorescence quenching; format: binding
[3] = molecular target: T3, E1p-α subunit of wild-type human E1p; assay: crystal structure
[4] = molecular target: T4, E1p-α subunit of S1-E1p (S271A-α, …); assay: crystal structure
[5] = molecular target: T5, E1p-α subunit of Y89F-α mutant E1p; assay: crystal structure

Molecule	Kd [1]	Kd [2]	binding result [3]	binding result [4]	binding result [5]
Cc1ncc(C[n+]2csc(CCO[P@](=O)(O)OP(=O)(O)O)c2C)c(N)n1 [ThDP]	0.11 ± 0.01 µM	50.2 ± 4.6 µM			
E1p-β subunit of human E1p (natural protein) LQVTVRDAINQGMDEELERDEKVFLLGEEVAQYDGAYKVSRGLWKKYGDKRIIDTPISEMGFAGIAVGAAMAGLRPICEFMTFNFSMQAIDQVINSAAKTYYMSGGLQPVPIVFRGPNGASAGVAAQHSQCFAAWYGHCPGLKVVSPWNSEDAKGLIKSAIRDNNPVVVLENELMYGVPFEFPPEAQSKDFLIPIGKAKIERQGTHITVVSHSRPVGHCLEAAAVLSKEGVECEVINMRTIRPMDMETIEASVMKTNHLVTVEGGWPQFGVGAEICARIMEGPAFNFLDAPAVRVTGADVPMPYAKILEDNSIPQVKDIIFAIKKTLNI			binds	binds	binds
